Measurements taken from US20240294945A1.

Key:
Assay in all cases: cell-based or functional assay
[1] = target: TALE-free DddAtox half G1397-C (Burkholderia cenocepacia)
[2] = target: right-TALE:G1397C (the C-terminal G1397 DddAtox half fused to the C-terminus of the right-TALE array (Burkholderia cenocepacia))
[3] = target: TALE-free DddAtox half G1333-C (Burkholderia cenocepacia) (UniProt P0DUH5)
[4] = target: right-TALE:G1333-C, mtND1-targeted DdCBE subunit (Burkholderia cenocepacia)
[5] = target: TALE-free DddAtox half G1333-N (Burkholderia cenocepacia) (UniProt P0DUH5)
[6] = target: TALE-free DddAtox half G1397-N (Burkholderia cenocepacia) (UniProt P0DUH5)

For “left-TALE:G1397N (the N-terminal G1397 DddAtox half fused to the C-terminus of the left-TALE array),”, the base editing efficiency at the mtND1 target, HEK293T [1] was 31% and the cytosine-to-thymine editing efficiency at C11 of the mtND1 target, HEK293T [2] was 60.7%.
“left-TALE:G1333-N, mtND1-targeted DdCBE subunit” gave a base editing efficiency at position C8 of the mtND1 target, HEK293T [3] of 32.7% and a base editing efficiency at position C8 of the mtND1 target, HEK293T [4] of 56.1%.
Work on “right-TALE:G1333-C, mtND1-targeted DdCBE subunit” yielded a base editing efficiency at position C8 of the mtND1 target, HEK293T [5] of 18.1%.
“right-TALE:G1397C (the C-terminal G1397 DddAtox half fused to the C-terminus of the right-TALE array” gave a base editing efficiency at the mtND1 target, HEK293T [6] of 8.1%.
